In patent US20170298096A1 (CANIMGUIDE THERAPEUTICS, published 2017):
No end group written: not given here.

T1: His-tagged P3028 (human, also: His-tag, terminus and sequence not given here)
T1 construct: in solution at 0.5 ug/mL over the peptide cards; found with anti-His-tag antibody and rabbit anti-mouse peroxidase (rampo); also called PGE73; not shown: His-tag
T1 peptide: VFDEFKPLVEEPQNLIK


Target: T1, His-tagged P3028
Assay: PEPSCAN chip ELISA, His-P3028 in solution;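 also: score is the raw OD at 405 nm from peroxidase colour with ABTS, imaged by CCD camera before and after staining, with wells showing air bubbles set to zero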

Row | Binder | RAMPO Score [rampo score]
1 | RKLDTFFVKLSLFTER [SEQ ID NO 3] | 523
2 | KKLDTFFVKLSLHTER [SEQ ID NO 24] | 1050
3 | KKLDTFFVKLGLFTER [SEQ ID NO 99] | 288
4 | AKLDTFFVKLSLFTER [SEQ ID NO 268] | 466
5 | HKLDTFFVKLSLFTER [SEQ ID NO 272] | 428
6 | KKLDTFFVKLSVFTER [SEQ ID NO 20] | 545
7 | KKLDTFFVKLSLQTER [SEQ ID NO 23] | 1140
8 | KKLDGFFVKLSLFTER [SEQ ID NO 95] | 386
9 | KKLDTFFVKLSLFPER [SEQ ID NO 32] | 551
10 | QKLDTFFVKLSLFTER [SEQ ID NO 278] | 455
11 | KKLDTFFVKLSLATER [SEQ ID NO 29] | 525
12 | KKHDTFFVKLSLFTER [SEQ ID NO 288] | 477
13 | RKLDTFFVKLSLFTER [SEQ ID NO 279] | 523
14 | KKLITFFVKLSLFTER [SEQ ID NO 300] | 430
15 | KKLDTFFVKLSLMTER [SEQ ID NO 22] | 1190
16 | KKGDTFFVKLSLFTER [SEQ ID NO 94] | 563
17 | KKLETFFVKLSLFTER [SEQ ID NO 299] | 417
18 | LKLDTFFVKLSLFTER [SEQ ID NO 274] | 449
19 | DKLDTFFVKLSLFTER [SEQ ID NO 269] | 373
20 | KKTDTFFVKLSLFTER [SEQ ID NO 296] | 451
21 | KKLDTFFVKLMLFTER [SEQ ID NO 16] | 744
22 | KKEDTFFVKLSLFTER [SEQ ID NO 285] | 528
23 | KKDDTFFVKLSLFTER [SEQ ID NO 284] | 492
24 | KKLDTFLVKLSLFTER [SEQ ID NO 13] | 517

Row | Binder | RAMPO Score [rampo score]
25 | VKLDTFFVKLSLFTER [SEQ ID NO 281] | 442
26 | KKIDTFFVKLSLFTER [SEQ ID NO 289] | 454
27 | KKLDTFFVKLSLFNER [SEQ ID NO 31] | 599
28 | KKLDTFFVKLTLFTER [SEQ ID NO 17] | 520
29 | KKLDTFVVKLSLFTER [SEQ ID NO 11] | 527
30 | KKSDTFFVKLSLFTER [SEQ ID NO 295] | 393
31 | KKLDTVFVKLSLFTER [SEQ ID NO 8] | 547
32 | NKLDTFFVKLSLFTER [SEQ ID NO 276] | 445
33 | KKLDTFSVKLSLFTER [SEQ ID NO 10] | 700
34 | KKQDTFFVKLSLFTER [SEQ ID NO 293] | 473
35 | GKLDTFFVKLSLFTER [SEQ ID NO 271] | 367
36 | KKLDTFMVKLSLFTER [SEQ ID NO 9] | 712
37 | KKLDTFFVKLSLGTER [SEQ ID NO 100] | 531
38 | KKEDTFFVKLSLFTER [SEQ ID NO 5] | 528
39 | KKLDTFFVKVSLFTER [SEQ ID NO 14] | 658
40 | TKLDTFFVKLSLFTER [SEQ ID NO 280] | 493
41 | KKLDQFFVKLSLFTER [SEQ ID NO 6] | 535
42 | KKLDTFFVKLSMFTER [SEQ ID NO 21] | 499
43 | KKGDTFFVKLSLFTER [SEQ ID NO 4] | 563
44 | KKRDTFFVKLSLFTER [SEQ ID NO 294] | 370
45 | KKLDTFFVKLSLNTER [SEQ ID NO 25] | 862
46 | EKLDTFFVKLSLFTER [SEQ ID NO 270] | 396
47 | IKLDTFFVKLSLFTER [SEQ ID NO 273] | 483
48 | KKNDTFFVKLSLFTER [SEQ ID NO 292] | 374

Row | Binder | RAMPO Score [rampo score]
49 | KKLDTFFVKLHLFTER [SEQ ID NO 18] | 535
50 | KKLATFFVKLSLFTER [SEQ ID NO 298] | 494
51 | KKLDTAFVKLSLFTER [SEQ ID NO 7] | 575
52 | MKLDTFFVKLSLFTER [SEQ ID NO 275] | 457
53 | KKLDTFFVKLSLRTER [SEQ ID NO 30] | 502
54 | GKLDTFFVKLSLFTER [SEQ ID NO 93] | 367
55 | KKLDTFFVKLSLFRER [SEQ ID NO 33] | 264
56 | KKLDTFTVKLSLFTER [SEQ ID NO 12] | 517
57 | KKADTFFVKLSLFTER [SEQ ID NO 282] | 427
58 | KKCDTFFVKLSLFTER [SEQ ID NO 283] | 432
59 | KKLDTFFVKLSLSTER [SEQ ID NO 27] | 635
60 | KKLDTFFVKLSLGTER [SEQ ID NO 28] | 531
61 | KKLDTFFVKLQLFTER [SEQ ID NO 15] | 768
62 | KKLDTFFKKLSLFTER (also called P27; SCF 27) [SEQ ID NO 264] | 253
63 | KKLDTFFVKLSLPTER [SEQ ID NO 26] | 696
64 | KKFDTFFVKLSLFTER [SEQ ID NO 286] | 393
65 | KKKDTFFVKLSLFTER [SEQ ID NO 290] | 386
66 | KKVDTFFVKLSLFTER [SEQ ID NO 297] | 377
67 | KKLDTFGVKLSLFTER [SEQ ID NO 96] | 347
68 | KKMDTFFVKLSLFTER [SEQ ID NO 291] | 460
69 | KKLDTFFVKLSQFTER [SEQ ID NO 19] | 651
70 | KKGDTFFVKLSLFTER [SEQ ID NO 287] | 563
71 | PKLDTFFVKLSLFTER [SEQ ID NO 277] | 387
